Experimental data as given in patent publication US9926349B2, “Chimeric molecule useful in immunotherapy for leishmaniasis, which includes a fragment of the PFR1 protein of leishmania infantum with specific immunodominant epitopes” (priority 2011, dated 2018).

B1: PFR1 protein: PFR1 recombinant protein of L. infantum expressed in a prokaryotic expression system and purified by affinity chromatography (protein, listed as Leishmania infantum)
chain: MMTPEDATGLEAARKQKIHNLKLKTACLENEELVQELHISDWSETQRQKLRGAHEKGEELLASVEVGTKWNLMEAYDLAKLMRVCGLEMSQRELYRPEDKPQFMDIIGVKKVLQDLRQNRNKTRVVSFTQLIDNSIAKMEKVEEELRRSQLDATQLAQVPTRTVKMMEDIMNATQIQNALASTDDQMQTQLAQLEKTNEIQNVAMHDGETQVAEEQMWTKVQLQERLIELLKDKFGLIGKCEEENAQFKEIYEVQKQANQETSQMKDAKRRLRQRCETDLKHIQDAIQKADLEDAEAVKRYPRNKERSERAIKENEEMQEEAWNKIQDLERQLQNLGTDRFDEVKRRIEEVDREEKRRVENAQFLEIAAQHKKLLELTVYNCDLAMRCTGLVEELVSEGCAGVKARYDKTNQDLAALRLEVHKEHLEYFRMLYLTLGSLIYKKEKRLEEIDRNIRLAHIQLEFCVETFDPNAKKHADMKKELYRLRQGVEEELAMLKEKQAAALDDFKESEEALDAAGIEFSHPVDENNEEVLTRRSKMVEYKSHLTKEEEVRIAAEREEIKRARLLRSGGESAAAQITSGSMNADYAASAQLEL
modifications: /mol_type=”protein“ /organism=”Leishmania infantum“; REGION 1..595 ”PFR1 protein aminoacids“; REGION 160..595 ”SEQ ID No 9“; REGION 160..548 ”SEQ ID No 10“; REGION 160..385 ”SEQ ID No 11“; PEPTIDE 103..113 ”SEQ ID No 1“; PEPTIDE 150..159 ”SEQ ID No 2“; PEPTIDE 165..173 ”SEQ ID No 4“; PEPTIDE 204..212 ”SEQ ID No 5“; PEPTIDE 222..230 ”SEQ ID No 6“; PEPTIDE 373..382 ”SEQ ID No 3“

Tested on: alveolar macrophages of naive rat
Assay: Nitric oxide production by alveolar macrophages stimulated with recombinant protein
Assay type: cell-based
Settings: for NO activation in the presence of polymyxin B: plus polymyxin B (LPS activity-induced inhibitor)
Excerpt: FIG. 2. Measurement of Nitric Oxide (NO) concentration in the supernatant of macrophages culture stimulated with lipopolysaccharide (LPS); lipopolysaccharide+polymyxin B (LPS+PolB); purified PFR-1 protein (PFR-1); purified PFR-1 protein+polymyxin B (PFR1+PolB); L-NG-monomethyl arginine citrate (LNMMA); purified PFR-1 protein+L-NG-monomethyl arginine citrate (PFR1+LNMMA). Concentration is expressed in μmol/liter.
PFR1 protein of Leishmania infantum is encompassed within the family of characteristic proteins of paraflagellar rod proteins from kinetoplastids. In FIG. 1, we show the PFR1 recombinant protein of L. infantum expressed in a prokaryotic expression system and purified by affinity chromatography. […] This activation of nitric oxide production confers to the aforementioned protein a relevant immunological feature because NO favors the clearance of the amastigotes of Leishmania that multiply within the host macrophages. In FIG. 2, the values of NO production by these alveolar macrophages are collected by stimulating them with LPS (control) and the PFR1 protein.

Molecule	NO activation in the presence of polymyxin B	production of nitric oxide (NO) by alveolar macrophages (naive rat alveolar macrophages stimulated with the protein)	NO activation in the presence of LNMMA (plus L-NG-monomethyl arginine, nitric oxide synthase inhibitor)
lipopolysaccharide [LPS, reference compound]	inhibited by the presence of polymyxin B	–	–
B1	unlike the one detected for PFR1 protein, the activation observed for LPS is inhibited by the presence of polymyxin B	ability to activate the production of nitric oxide (NO)	inhibits the NO activation induced by the PFR1 protein
